From patent US20200247855A1, “THERAPY AND DIAGNOSTICS” (OXFORD UNIVERSITY INNOVATION LIMITED, priority 2017, published 2020)
Where a chain is given by its changes, count along the chain named. “Also recorded” adds a separate entry of the source.

B1: P1078_IXORI: novel CXC-binding tick CKBP, Ixodes ricinus (protein, listed as Ixodes ricinus)
chain: GSKGSSAQQSSHDSIKAEFCETNCTMKTGGKWTQCHGGCFCVHVGNETVGRCIKLDGDYDYPSSKHEE
B2: P675_IXORI: novel CXC-binding tick CKBP, Ixodes ricinus (protein, listed as Ixodes ricinus)
chain: GSNQLSGPQSSANSNDAVFCDTNCTQGTDGAWSGCRGDCFCVHVGNSTEGRCIELIGDFDYSTPGAED
B3: SEQ ID NO: 80: two-warhead evasin: P1156_IXORI linked via GGGGS linker to P991_AMBCA (protein)
chain: ADDDNELFTVQYCGMNCTKDEGGTWTGCTGKKEGCKCYHESGKNYGLCLSTEYTDFSQYGNPSDSEIEAAKPKRSDTLSHGGGGSENGEGTTQPDYDNSTDYYNYEDFKCTCPAPHLNNTNGTVMKPIGCYYTCNVTRCTAPDTYPCYNLTEHQAKNLTTSPTTLCAVGNCDHGICVPNGTKELCFKAPNLEE
modifications: hybrid polypeptide
notes: two-warhead evasin: P1156_IXORI linked via GGGGS linker to P991_AMBCA
B4: SEQ ID NO: 81: two-warhead evasin: P1156_IXORI linked via GGGGS linker to P1243_AMBAM (protein)
chain: ADDDNELFTVQYCGMNCTKDEGGTWTGCTGKKEGCKCYHESGKNYGLCLSTEYTDFSQYGNPSDSEIEAAKPKRSDTLSHGGGGSRNHTEDNSTEYYDYEEARCACPARHLNNTNGTVLKLLGCHYFCNGTLCTAPDGYPCYNLTAQQVRTLTTYPNTSCAVGVCMKGTCVKNGTMEQCFKTP
modifications: hybrid polypeptide
notes: two-warhead evasin: P1156_IXORI linked via GGGGS linker to P1243_AMBAM
B5: P974_AMBCA: tick CKBP, Amblyomma cajennense; ACA-01 stated identical (protein)
chain: ENTQQEEQDYDYGTDTCPFPVLANKTNKAKFVGCHQKCNGGDQKLTDGTACYVVERKVWDRMTPMLWYECPLGECKNGVCEDLRKKEDCRKGNGEEK
modifications: Amblyomma cajennense
notes: tick CKBP, Amblyomma cajennense; ACA-01 stated identical
B6: P546_AMBCA: tick CKBP, Amblyomma cajennense (protein)
chain: B5 chain with Q8E, E69S, D88E
modifications: Amblyomma cajennense
B7: P1090_IXORI: novel CXC-binding tick CKBP, Ixodes ricinus (protein, listed as Ixodes ricinus)
chain: GSKELSGPESSENSIEAAFCDTNCTEGTDGVWSGCSAGCFCVHVGNSTVGRCMTFNGVDGG
B8: P942_IXORI: novel CXC-binding tick CKBP, Ixodes ricinus (protein, listed as Ixodes ricinus)
chain: NQLSGPQSSANSNEAVFCDTNCTQGTDEAWSGCRGDCFCVYVGNSTEGRCMMLSGDFDYSTPGAED
B9: P985_AMBPA: tick CKBP, Amblyomma parvum (protein, listed as Amblyomma parvum)
chain: DEESEELGASTDVDYEELDANCTCPAPALTSTRNNKHYPLGCIYNCSSYNCTIPDGTPCYVLTLGEVKEHLQIGSTVPNCTCGLCRNGTCVSNGTVEECFAVEEIEET
B10: SEQ ID NO: 73: two-warhead evasin: P991_AMBCA linked via GGGGS linker to P1156_IXORI (protein)
chain: ENGEGTTQPDYDNSTDYYNYEDFKCTCPAPHLNNTNGTVMKPIGCYYTCNVTRCTAPDTYPCYNLTEHQAKNLTTSPTTLCAVGNCDHGICVPNGTKELCFKAPNLEEGGGGSADDDNELFTVQYCGMNCTKDEGGTWTGCTGKKEGCKCYHESGKNYGLCLSTEYTDFSQYGNPSDSEIEAAKPKRSDTLSH
modifications: hybrid polypeptide
notes: two-warhead evasin: P991_AMBCA linked via GGGGS linker to P1156_IXORI

Tests used:
[1] = target: T1, CXCL11_HUMAN (Homo sapiens, UniProt O14625); assay: Yeast surface display (YSD) FACS binding; details: FACS re-test; mean percent shift where several clones
T1 sequence (O14625 22-94): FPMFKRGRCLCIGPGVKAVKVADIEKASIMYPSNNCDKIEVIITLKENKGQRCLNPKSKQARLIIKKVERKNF
How it was run: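 Yeast clones displaying tick peptides were re-tested by FACS with labelled chemokine detected by streptavidin-Alexa conjugate. Binding was scored as % of peptide-expressing cells above a background set with streptavidin-Alexa alone, averaged over independent clones. In the screen tables, >3-fold over background mean fluorescence intensity was scored as binding.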

[2] = tested on: human CCL5 together with CXCL8, CXCL1, CCL3 or CCL2; assay: Biolayer interferometry polyvalent binding (association with CCL5, then CCL5 plus second chemokine); details: BLI, wavelength shift in association 2
Source text: FIG. 10. Polyvalent binding of CC and CXC chemokines to two-warhead evasins. […] This was followed by association with CCL5+CXCL8 (light grey trace), or with CCL5+CXCL1 (dark grey trace) or CCL5+CCL3 (black trace) (association 2), and then dissociated in buffer (dissociation).
FIG. 11. Polyvalent binding of CC and CXC chemokines to two-warhead evasins. […] This was followed by association with CCL5+CXCL8 (light grey trace), or with CCL5+CXCL1 (dark grey trace) or CCL5+CCL2 (black trace) (association 2), and then dissociated in buffer (dissociation).
The ability of 2-warhead evasins to engage in polyvalent binding of CC and CXC chemokines was further determined.

[3] = target: CCL11_HUMAN (Homo sapiens, UniProt P51671); assay: Biolayer interferometry (BLI) binding
Sequence of CCL11_HUMAN (P51671 24-97): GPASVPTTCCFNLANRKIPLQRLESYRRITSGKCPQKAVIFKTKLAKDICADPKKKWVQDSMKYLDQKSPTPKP
How it was run: (§1)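 Binding was measured by biolayer interferometry with the His-tagged tick protein bound to Ni-NTA sensors. A single-concentration screen used chemokine at 300 nM. Chemokines that bound were retested over multiple doses, and Kd was calculated from fitted curves.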

[4] = target: CCL13_HUMAN (Homo sapiens, UniProt Q99616); assay: Biolayer interferometry (BLI) binding
Sequence of CCL13_HUMAN (Q99616 17-98): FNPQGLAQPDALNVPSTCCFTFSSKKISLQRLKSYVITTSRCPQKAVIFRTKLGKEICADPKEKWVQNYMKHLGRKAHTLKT
How it was run: as §1

[5] = target: T2, CCL14_HUMAN (Homo sapiens, UniProt Q16627); assay: Biolayer interferometry (BLI) binding
T2 sequence (Q16627 20-93): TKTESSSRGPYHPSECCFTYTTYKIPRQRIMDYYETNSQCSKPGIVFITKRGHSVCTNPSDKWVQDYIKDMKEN
How it was run: as §1

[6] = target: T3, CCL17_HUMAN (Homo sapiens, UniProt Q92583); assay: Biolayer interferometry (BLI) binding
T3 sequence (Q92583 24-94): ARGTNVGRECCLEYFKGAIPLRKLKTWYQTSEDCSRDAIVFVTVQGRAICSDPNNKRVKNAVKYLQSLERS
How it was run: as §1

[7] = target: T4, CCL18_HUMAN (Homo sapiens, UniProt P55774); assay: Biolayer interferometry (BLI) binding
T4 sequence (P55774 21-89): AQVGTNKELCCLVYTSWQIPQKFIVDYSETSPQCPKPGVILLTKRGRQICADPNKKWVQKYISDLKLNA
How it was run: as §1

[8] = target: T5, CCL1_HUMAN (Homo sapiens, UniProt P22362); assay: Biolayer interferometry (BLI) binding
T5 sequence (P22362 24-96): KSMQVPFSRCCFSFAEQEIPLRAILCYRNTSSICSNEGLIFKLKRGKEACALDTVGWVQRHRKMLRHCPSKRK
How it was run: as §1

[9] = target: T6, CCL22_HUMAN (Homo sapiens, UniProt O00626); assay: Biolayer interferometry (BLI) binding
T6 sequence (O00626 25-93): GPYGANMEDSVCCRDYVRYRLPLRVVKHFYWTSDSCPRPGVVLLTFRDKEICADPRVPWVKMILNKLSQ
How it was run: as §1

[10] = target: CCL2_HUMAN (Homo sapiens, UniProt P13500); assay: Biolayer interferometry (BLI) binding
Sequence of CCL2_HUMAN (P13500 24-99): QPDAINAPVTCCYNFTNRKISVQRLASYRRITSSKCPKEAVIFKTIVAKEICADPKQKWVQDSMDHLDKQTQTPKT
How it was run: as §1

[11] = target: CCL3L1_HUMAN (Homo sapiens, UniProt P16619); assay: Biolayer interferometry (BLI) binding
Sequence of CCL3L1_HUMAN (P16619 24-93): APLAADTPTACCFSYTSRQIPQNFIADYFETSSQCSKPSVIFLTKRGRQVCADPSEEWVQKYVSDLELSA
How it was run: as §1

[12] = target: T7, CCL3_HUMAN (Homo sapiens, UniProt P10147); assay: Biolayer interferometry (BLI) binding
T7 sequence (P10147 24-92): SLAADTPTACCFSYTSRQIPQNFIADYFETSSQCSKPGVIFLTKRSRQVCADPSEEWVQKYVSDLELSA
How it was run: as §1

[13] = target: T8, CCL4L1_HUMAN (Homo sapiens, UniProt Q8NHW4); assay: Biolayer interferometry (BLI) binding
T8 sequence (Q8NHW4 24-92): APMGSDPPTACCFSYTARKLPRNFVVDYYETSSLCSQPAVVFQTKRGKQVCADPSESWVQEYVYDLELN
How it was run: as §1

[14] = target: T9, CCL4_HUMAN (Homo sapiens, UniProt P13236); assay: Biolayer interferometry (BLI) binding
T9 sequence (P13236 24-92): T8 sequence (Q8NHW4 24-92) with G47S
How it was run: as §1

[15] = target: T10, CCL5_HUMAN (Homo sapiens, UniProt P13501); assay: Biolayer interferometry (BLI) binding
T10 sequence (P13501 24-91): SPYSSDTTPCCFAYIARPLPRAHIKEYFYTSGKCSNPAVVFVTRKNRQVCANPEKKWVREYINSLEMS
How it was run: as §1

[16] = target: CCL7_HUMAN (Homo sapiens, UniProt P80098); assay: Biolayer interferometry (BLI) binding
Sequence of CCL7_HUMAN (P80098 24-99): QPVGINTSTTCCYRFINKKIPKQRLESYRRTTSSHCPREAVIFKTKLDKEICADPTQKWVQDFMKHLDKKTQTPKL
How it was run: as §1

[17] = target: T11, CCL8_HUMAN (Homo sapiens, UniProt P80075); assay: Biolayer interferometry (BLI) binding; details: read-out: Kd, CCL8_HUMAN
T11 sequence (P80075 24-99): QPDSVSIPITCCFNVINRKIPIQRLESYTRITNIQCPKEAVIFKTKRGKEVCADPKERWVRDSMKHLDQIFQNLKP
How it was run: as §1

[18] = tested on: chemokines; details: list of chemokines bound, from the literature [18,20-22]; cited from earlier work
[19] = target: T12, CCL16_HUMAN (Homo sapiens, UniProt O15467); assay: Biolayer interferometry (BLI) binding
T12 sequence (O15467 24-120): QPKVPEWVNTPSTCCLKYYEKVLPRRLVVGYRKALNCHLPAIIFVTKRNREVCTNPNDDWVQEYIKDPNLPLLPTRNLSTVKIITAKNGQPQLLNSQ
How it was run: as §1

[20] = target: T13, CCL24_HUMAN (Homo sapiens, UniProt O00175); assay: Biolayer interferometry (BLI) binding
T13 sequence (O00175 27-119): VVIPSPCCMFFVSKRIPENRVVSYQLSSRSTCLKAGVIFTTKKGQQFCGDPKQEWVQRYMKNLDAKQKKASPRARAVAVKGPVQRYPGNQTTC
How it was run: as §1

Row | Molecule | Chemokines bound in yeast surface display and % cells over threshold fluorescence: CXCL11_HUMAN [1] | Polyvalent (simultaneous) binding of CC and CXC chemokines [2] | Kd [3] | Kd [4] | Kd [7] | Kd [8] | Kd [10] | Kd [11] | Kd [12] | Kd [13] | Kd [14] | Kd [16] | Kd [17] | other results
1 | B1 | CXCL11_HUMAN 38% |  |  |  |  |  |  |  |  |  |  |  |  | 
2 | B2 | CXCL11_HUMAN 55% |  |  |  |  |  |  |  |  |  |  |  |  | 
3 | B3 |  | can associate simultaneously with CCL5 and either CXCL8 or CXCL1 |  |  |  |  |  |  |  |  |  |  |  | 
4 | B4 |  | can associate simultaneously with CCL5 and either CXCL8 or CXCL1 |  |  |  |  |  |  |  |  |  |  |  | 
5 | B5 |  |  | 17 nM | 22.9 nM | 17 nM | 70.5 nM | 93 nM | 13.1 nM | 7.97 nM | 23.2 nM | 30.2 nM | 41.2 nM | 2.58 nM | Kd [5]: 49.1 nM; Kd [6]: 70.6 nM; Kd [9]: 16.5 nM; Kd [15]: 160 nM; Previously described chemokine binding [18]: CCL11, CCL24,; also recorded: CCL26, CCL2,; also recorded: CCL8, CCL7
6 | B6 |  |  | 8.7 nM | 13 nM | 16 nM | 160 nM | 83 nM | 15 nM | 15 nM | 8.9 nM | 27 nM | 90 nM | 1.3 nM | Kd [5]: 28 nM; Kd [6]: 70 nM; Kd [9]: 27 nM
7 | B7 | CXCL11_HUMAN 32% |  |  |  |  |  |  |  |  |  |  |  |  | 
8 | B8 | CXCL11_HUMAN 37% |  |  |  |  |  |  |  |  |  |  |  |  | 
9 | B9 |  |  | 8 nM | 89 nM | 430 nM | 8.3 nM | 17 nM | 7.5 nM | 8.9 nM | 21 nM | 46 nM | 61 nM | 6.5 nM | Kd [19]: 45 nM; Kd [20]: 41 nM; Kd [15]: 3.5 nM
10 | B10 |  | can associate simultaneously with CCL5 and either CXCL8 or CXCL1 |  |  |  |  |  |  |  |  |  |  |  | 
